Data reported in paper PMC8835667, “The KRAB Domain of ZNF10 Guides the Identification of Specific Amino Acids That Transform the Ancestral KRAB-A-Related Domain Present in Human PRDM9 into a Canonical Modern KRAB-A Domain” (International Journal of Molecular Sciences, 2022).
One block for each binder: values may come before it.

Biological target: tripartite motif containing 28 (TRIM28) (human (endogenous in HeLa), UniProt Q13263 1-835)
Experiment: cell-based or functional assay

Sequence of tripartite motif containing 28 (TRIM28) (Q13263 whole entry): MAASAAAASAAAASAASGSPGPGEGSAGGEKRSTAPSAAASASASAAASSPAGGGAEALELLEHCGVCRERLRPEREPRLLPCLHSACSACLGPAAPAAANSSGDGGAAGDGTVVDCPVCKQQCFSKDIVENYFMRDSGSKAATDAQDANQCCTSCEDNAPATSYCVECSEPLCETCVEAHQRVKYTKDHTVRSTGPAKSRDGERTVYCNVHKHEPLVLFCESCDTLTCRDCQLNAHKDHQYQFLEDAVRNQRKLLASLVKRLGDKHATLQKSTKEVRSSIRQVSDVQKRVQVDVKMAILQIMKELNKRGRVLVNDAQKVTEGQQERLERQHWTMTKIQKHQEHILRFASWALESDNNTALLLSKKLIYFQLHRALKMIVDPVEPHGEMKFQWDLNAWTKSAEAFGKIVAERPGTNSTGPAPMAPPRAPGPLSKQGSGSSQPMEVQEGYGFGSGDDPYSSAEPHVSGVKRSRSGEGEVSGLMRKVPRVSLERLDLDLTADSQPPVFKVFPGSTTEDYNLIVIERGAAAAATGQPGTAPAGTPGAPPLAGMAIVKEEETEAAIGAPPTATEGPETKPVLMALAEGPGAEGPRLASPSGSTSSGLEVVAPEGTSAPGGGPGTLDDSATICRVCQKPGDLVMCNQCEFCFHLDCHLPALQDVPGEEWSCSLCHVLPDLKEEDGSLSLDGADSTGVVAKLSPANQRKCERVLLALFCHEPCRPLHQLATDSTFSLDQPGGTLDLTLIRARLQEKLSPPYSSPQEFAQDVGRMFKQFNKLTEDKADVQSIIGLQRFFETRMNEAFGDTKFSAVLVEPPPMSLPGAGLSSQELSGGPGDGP

transcriptional repression factor over Gal4-DBD alone, dual luciferase reporter assay in HeLa cells (KRAB domain as Gal4-DBD fusion): 1.3 fold
B1: GST-PRDM9-A/24-97 (domain or fragment, human, UniProt Q9NQV7 24-97, looked up)
chain: VKDAFKDISIYFTKEEWAEMGDWEKTRYRNVKRNYNALITIGLRATRPAFMCHRRQAIKLQVDDTEDSDEEWTP

transcriptional repression factor over Gal4-DBD alone, dual luciferase reporter assay in HeLa cells (KRAB domain as Gal4-DBD fusion): ~19 fold
B2: GST-ZNF10-AB fusion protein (domain or fragment)
chain: not shown
